According to patent US7026125, “Heterodimers of retinoid X receptors (RXRS) and other steroid hormone receptors” (Ligand Pharmaceuticals):

Legend:
RARγ/RXRαm4 = RARγ/RXRαm4 (UniProt P13631;P19793 P13631:1-454,P19793:61-462, RXRα N-terminal deletion of 61 aa); assay: EMSA; faster migrating than RXRαm3 complex; settings: label: 32P
Experimental: (§1) In vitro translated receptor protein (1 to 5 μl depending on the translation efficiency) was incubated with the ^32P-labeled oligonucleotides in a 20-μl reaction mixture containing 10 mM hepes buffer, pH 7.9, 50 mM KCl, 1 mM DTT, 2.5 mM MgCl, 10% glycerol, and 1 μg of poly(dI-dC) at 25° C. for 20 minutes. In general, relative low receptor concentration was used to obtain the clear effect of heterodimer formation. The reaction mixture was then loaded on a 5% nondenaturing ployacrylamide gel containing 0.5×TBE (1×TBE=0.089 M Tris-borate, 0.089 M boric acid, and 0.002 M EDTA). To analyze the effect of RXRα or the nuclear proteins on receptor DNA binding activity, RXRα or the cell extracts were preincubated with receptor protein at room temperature for 10 minutes before performing the DNA binding assay. When antibody was used, 1 μl of the antiserum was incubated with the specific translation products at room temperature for 45 minutes before performing the experiments described above.

TRαm3 = biological target: T1, TRαm3 (UniProt P10827-2 P10827-2:1-167, C-terminal deletion of 243 aa); assay: EMSA; several complexes; settings: label: 32P
T1 sequence: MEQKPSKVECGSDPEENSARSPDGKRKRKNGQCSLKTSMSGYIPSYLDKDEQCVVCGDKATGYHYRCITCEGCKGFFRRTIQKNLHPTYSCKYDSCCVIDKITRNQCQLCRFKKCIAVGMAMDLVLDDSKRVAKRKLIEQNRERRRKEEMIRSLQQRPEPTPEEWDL
Experimental: as §1

TRαm2 = biological target: T2, TRαm2 (UniProt P10827-2 P10827-2:1-213, C-terminal deletion of 197 aa); assay: EMSA; several complexes; settings: label: 32P
T2 sequence: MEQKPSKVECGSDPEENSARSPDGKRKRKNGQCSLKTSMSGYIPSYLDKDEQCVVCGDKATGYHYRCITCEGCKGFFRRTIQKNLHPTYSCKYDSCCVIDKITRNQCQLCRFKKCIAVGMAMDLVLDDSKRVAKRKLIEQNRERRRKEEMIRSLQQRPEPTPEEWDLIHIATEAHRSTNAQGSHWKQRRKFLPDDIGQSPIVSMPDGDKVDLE
Experimental: as §1

TRβ/RXRα heterodimer = TRβ/RXRα heterodimer (UniProt P10828;P19793 P10828:1-461,P19793:1-462); assay: EMSA; upshifted complex; settings: label: 32P
Sequence of TRβ/RXRα heterodimer (P10828 whole entry, chain 1 of 2): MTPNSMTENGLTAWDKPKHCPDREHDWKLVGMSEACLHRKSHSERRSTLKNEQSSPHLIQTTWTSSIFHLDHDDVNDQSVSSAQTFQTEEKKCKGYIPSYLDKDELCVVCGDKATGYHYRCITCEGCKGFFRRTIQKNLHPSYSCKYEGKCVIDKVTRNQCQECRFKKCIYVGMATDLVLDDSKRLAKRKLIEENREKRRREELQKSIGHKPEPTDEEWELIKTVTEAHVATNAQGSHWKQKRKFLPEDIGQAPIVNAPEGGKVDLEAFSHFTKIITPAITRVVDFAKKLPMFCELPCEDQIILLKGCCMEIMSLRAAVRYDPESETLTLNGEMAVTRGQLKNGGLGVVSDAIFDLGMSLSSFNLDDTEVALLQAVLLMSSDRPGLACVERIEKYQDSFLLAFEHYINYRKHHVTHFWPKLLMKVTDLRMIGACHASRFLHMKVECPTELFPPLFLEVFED
Sequence of TRβ/RXRα heterodimer (P19793 whole entry, chain 2 of 2): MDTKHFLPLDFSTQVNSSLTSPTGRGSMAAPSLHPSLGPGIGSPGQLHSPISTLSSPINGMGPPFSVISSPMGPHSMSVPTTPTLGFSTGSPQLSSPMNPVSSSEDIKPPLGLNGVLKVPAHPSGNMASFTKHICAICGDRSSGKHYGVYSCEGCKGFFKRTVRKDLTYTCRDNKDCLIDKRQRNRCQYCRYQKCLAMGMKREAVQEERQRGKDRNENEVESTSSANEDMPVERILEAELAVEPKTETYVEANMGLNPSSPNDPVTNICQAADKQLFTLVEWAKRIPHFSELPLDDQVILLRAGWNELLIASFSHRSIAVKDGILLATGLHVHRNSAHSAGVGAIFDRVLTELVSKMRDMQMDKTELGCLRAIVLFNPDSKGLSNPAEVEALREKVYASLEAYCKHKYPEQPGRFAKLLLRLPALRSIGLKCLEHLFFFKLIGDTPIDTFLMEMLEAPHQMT
Experimental: (§2) (a) In vitro synthesized TRα, TRβ, RARα, RARβ, RARγ and TRα2 receptor proteins were preincubated either with (+) or without (−) equal amount of in vitro synthesized RXRα protein at room temperature for 10 minutes. Following this preincubation, the reaction mixtures were incubated with ^32p-labelled palindromic TRE (for 1 sequence see FIG. 2a) and analyzed by gel retardation assay as described in Experimental Procedures. […] As a control, equal amounts of TRα and RARα proteins were also mixed and incubated with labelled TRE.
as §1, with “When antibody was used, 1 μl of the antiserum was incubated with the specific translation products at room temperature for 45 minutes before performing the experiments described above.” left out

TRαm1/RXRα = TRαm1/RXRα (UniProt P10827-2;P19793 P10827-2:1-402,P19793:1-462, TRα C-terminal deletion of 8 aa); assay: EMSA; interaction unaffected; settings: label: 32P
Sequence of TRαm1/RXRα (P19793 whole entry, stated change not applied, one chain of several): as the sequence (P19793 whole entry, chain 2 of 2) above
Experimental: as §1

Flag-TRα = biological target: T3, Flag-TRα (UniProt P10827-2 P10827-2:1-410); assay: EMSA; supershifted by anti-Flag; settings: tags: N-terminal Flag; label: 32P
T3 sequence: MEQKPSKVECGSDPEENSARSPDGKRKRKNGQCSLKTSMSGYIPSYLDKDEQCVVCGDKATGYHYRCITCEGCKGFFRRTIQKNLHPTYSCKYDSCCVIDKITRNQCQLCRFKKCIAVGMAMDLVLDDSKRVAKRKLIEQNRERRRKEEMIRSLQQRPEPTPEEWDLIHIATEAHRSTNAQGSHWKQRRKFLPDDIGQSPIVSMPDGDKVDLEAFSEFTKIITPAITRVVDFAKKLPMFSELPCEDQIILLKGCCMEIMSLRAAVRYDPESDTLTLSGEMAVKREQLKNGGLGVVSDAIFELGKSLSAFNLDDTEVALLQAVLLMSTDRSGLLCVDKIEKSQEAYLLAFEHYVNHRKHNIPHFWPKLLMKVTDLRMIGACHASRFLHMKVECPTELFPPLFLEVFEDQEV
Experimental: (b) Effect of anti-Flag-TRα antibody on binding of the slow migrating complex. In vitro synthesized Flag-TRα (F-TRα) protein was incubated with in vitro synthesized RXRα protein in the presence or absence of anti-Flag antibody. The effect of antibody on DNA binding of the slow migrating complex was analyzed as described in FIG. 2a. For control, the receptor mixture was also incubated with preimmune serum (NI). The effect of anti-Flag antibody on DNA binding of Flag-RXRα, RXRα, Flag-TRα, and TRα was also analyzed. For comparison, anti-Flag antibody/Flag-RXRα-TRα interaction was run on the same gel (lanes 7–10).
In vitro translated receptor protein (1 to 5 μl depending on the translation efficiency) was incubated with the ^32P-labeled oligonucleotides in a 20-μl reaction mixture containing 10 mM hepes buffer, pH 7.9, 50 mM KCl, 1 mM DTT, 2.5 mM MgCl, 10% glycerol, and 1 μg of poly(dI-dC) at 25° C. for 20 minutes. In general, relative low receptor concentration was used to obtain the clear effect of heterodimer formation. The reaction mixture was then loaded on a 5% nondenaturing ployacrylamide gel containing 0.5×TBE (1×TBE=0.089 M Tris-borate, 0.089 M boric acid, and 0.002 M EDTA). […]

[1] = biological target: Flag-RARγ/RXRα heterodimer (UniProt P13631;P19793 P13631:1-454,P19793:1-462); assay: EMSA; inhibited by anti-Flag; settings: tags: N-terminal Flag on RARγ; label: 32P
Sequence of Flag-RARγ/RXRα heterodimer (P13631 whole entry, chain 1 of 2): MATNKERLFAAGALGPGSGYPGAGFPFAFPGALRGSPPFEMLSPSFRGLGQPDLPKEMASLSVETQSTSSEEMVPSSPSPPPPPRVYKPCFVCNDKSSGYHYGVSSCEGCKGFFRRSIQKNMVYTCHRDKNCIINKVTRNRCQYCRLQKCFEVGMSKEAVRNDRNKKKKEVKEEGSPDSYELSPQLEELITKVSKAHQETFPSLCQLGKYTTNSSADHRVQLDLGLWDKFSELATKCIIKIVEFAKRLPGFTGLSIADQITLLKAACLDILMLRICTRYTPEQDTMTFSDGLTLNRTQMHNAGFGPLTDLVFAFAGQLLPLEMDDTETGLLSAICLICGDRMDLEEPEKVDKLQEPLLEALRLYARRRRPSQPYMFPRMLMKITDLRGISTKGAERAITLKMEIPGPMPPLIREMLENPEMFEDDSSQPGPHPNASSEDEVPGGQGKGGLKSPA
Sequence of Flag-RARγ/RXRα heterodimer (P19793 whole entry, chain 2 of 2): as the sequence (P19793 whole entry, chain 2 of 2) above
Experimental: as §1

TRα/RXRα heterodimer = TRα/RXRα heterodimer (UniProt P10827-2;P19793 P10827-2:1-410,P19793:1-462); assay: EMSA; at least an order of magnitude more effective than either alone; T3 or RA no clear effect; settings: label: 32P
Sequence of TRα/RXRα heterodimer (P19793 whole entry, one chain of several): as the sequence (P19793 whole entry, chain 2 of 2) above
Experimental: as §2
as §1, with “When antibody was used, 1 μl of the antiserum was incubated with the specific translation products at room temperature for 45 minutes before performing the experiments described above.” left out

RARα/RXRα heterodimer = RARα/RXRα heterodimer (Homo sapiens, UniProt P10276;P19793 P10276:1-462,P19793:1-462); assay: EMSA; settings: label: 32P
Sequence of RARα/RXRα heterodimer (P10276 whole entry, chain 1 of 2): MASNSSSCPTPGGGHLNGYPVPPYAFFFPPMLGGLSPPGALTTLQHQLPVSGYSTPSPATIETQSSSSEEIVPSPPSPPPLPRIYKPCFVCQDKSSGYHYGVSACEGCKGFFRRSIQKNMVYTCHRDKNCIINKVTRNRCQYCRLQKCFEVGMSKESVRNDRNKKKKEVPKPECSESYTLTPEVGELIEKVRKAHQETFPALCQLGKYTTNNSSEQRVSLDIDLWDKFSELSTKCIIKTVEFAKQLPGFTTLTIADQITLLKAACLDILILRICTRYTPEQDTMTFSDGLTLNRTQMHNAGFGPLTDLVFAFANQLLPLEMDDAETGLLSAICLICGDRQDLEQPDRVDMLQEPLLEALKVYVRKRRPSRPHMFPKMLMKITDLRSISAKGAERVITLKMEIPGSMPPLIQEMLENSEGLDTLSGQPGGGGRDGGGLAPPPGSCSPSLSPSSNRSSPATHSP
Sequence of RARα/RXRα heterodimer (P19793 whole entry, chain 2 of 2): as the sequence (P19793 whole entry, chain 2 of 2) above
Experimental: as §2, §1

TRα/RXRαm4 = TRα/RXRαm4 (UniProt P10827-2;P19793 P10827-2:1-410,P19793:61-462, RXRα N-terminal deletion of 61 aa); assay: EMSA; faster migrating than RXRαm3 complex; settings: label: 32P
Sequence of TRα/RXRαm4 (P19793 62-462, stated change not applied, one chain of several): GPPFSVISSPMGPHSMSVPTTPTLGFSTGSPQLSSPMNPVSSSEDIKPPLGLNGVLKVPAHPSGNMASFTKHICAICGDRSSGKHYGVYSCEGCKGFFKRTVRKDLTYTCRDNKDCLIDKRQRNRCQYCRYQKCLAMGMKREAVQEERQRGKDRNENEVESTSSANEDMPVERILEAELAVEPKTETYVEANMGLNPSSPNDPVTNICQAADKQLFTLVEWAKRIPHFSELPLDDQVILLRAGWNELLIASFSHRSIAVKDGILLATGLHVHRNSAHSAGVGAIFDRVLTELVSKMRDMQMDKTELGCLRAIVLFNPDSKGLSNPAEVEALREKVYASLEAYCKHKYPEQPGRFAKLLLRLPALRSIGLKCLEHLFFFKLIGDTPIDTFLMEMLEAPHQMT
Experimental: as §1, with “In” for “In vitro translated receptor protein (1 to 5 μl depending on the translation efficiency) was incubated with the ^32P-labeled oligonucleotides in a 20-μl reaction mixture containing 10 mM hepes buffer, pH 7.9, 50 mM KCl, 1 mM DTT, 2.5 mM MgCl, 10% glycerol, and 1 μg of poly(dI-dC) at 25° C. for 20 minutes. In”

Measured: binding result

Sequence of RARγ/RXRαm4 (P13631 whole entry, stated change not applied, chain 1 of 2): as the sequence (P13631 whole entry, chain 1 of 2) above
Sequence of RARγ/RXRαm4 (P19793 62-462, stated change not applied, chain 2 of 2): as the sequence (P19793 62-462, stated change not applied, one chain of several) above

B1: palindromic TRE (dsDNA)
DNA 1: GATCTCAGGTCATGACCTGAGATC
DNA 2: GATCTCAGGTCATGACCTGAGATC
binds: all assays above
